Reference: publication doi:10.1101/384248

Target: p53 (human (endogenous in HCT 116, MCF7, U2OS)), P04637
Experiment: co-IP
Details: remark: other sources report otherwise

p53 (human (endogenous in HCT 116, MCF7, U2OS)), P04637, sequence (P04637 whole entry): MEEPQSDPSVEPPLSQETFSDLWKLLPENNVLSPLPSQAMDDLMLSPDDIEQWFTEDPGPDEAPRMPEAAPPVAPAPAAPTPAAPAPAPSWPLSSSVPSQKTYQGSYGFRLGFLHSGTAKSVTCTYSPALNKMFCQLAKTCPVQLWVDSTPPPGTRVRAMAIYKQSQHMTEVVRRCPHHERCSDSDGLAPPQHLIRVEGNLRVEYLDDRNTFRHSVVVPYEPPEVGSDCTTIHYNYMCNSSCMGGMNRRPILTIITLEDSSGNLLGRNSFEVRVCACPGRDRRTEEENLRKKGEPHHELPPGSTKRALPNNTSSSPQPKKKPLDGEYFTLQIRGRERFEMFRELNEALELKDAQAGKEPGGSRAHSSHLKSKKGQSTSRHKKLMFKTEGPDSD

percent decrease of MDMX bound to p53 in cells treated with RITA: 43%
B1: MDMX, O15151 1-490 (natural protein)
chain: MTSFSTSAQCSTSDSACRISPGQINQVRPKLPLLKILHAAGAQGEMFTVKEVMHYLGQYIMVKQLYDQQEQHMVYCGGDLLGELLGRQSFSVKDPSPLYDMLRKNLVTLATATTDAAQTLALAQDHSMDIPSQDQLKQSAEESSTSRKRTTEDDIPTLPTSEHKCIHSREDEDLIENLAQDETSRLDLGFEEWDVAGLPWWFLGNLRSNYTPRSNGSTDLQTNQDVGTAIVSDTTDDLWFLNESVSEQLGVGIKVEAADTEQTSEEVGKVSDKKVIEVGKNDDLEDSKSLSDDTDVEVTSEDEWQCTECKKFNSPSKRYCFRCWALRKDWYSDCSKLTHSLSTSDITAIPEKENEGNDVPDCRRTISAPVVRPKDAYIKKENSKLFDPCNSVEFLDLAHSSESQETISSMGEQLDNLSEQRTDTENMEDCQNLLKPCSLCEKRPRDGNIIHGRTGHLVTCFHCARRLKKAGASCPICKKEIQLVIKVFIA
